Data reported in patent US20210355194A1.
Numbering of substitutions follows the chain as printed.

Biological target: COVID S1 RBD Fc fusion (Antigen 1) (SARS-CoV-2), P0DTC2
Assay: phage ELISA
Details: remark: other sources report otherwise

B1: SARS-CoV-2 variant 1-4 (antibody)
chain 1: EVQLLESGGGLVQPGGSLRLSCAASGFTFSSQAMSWVRQAPGKGLEWVSAISGSGGGTYYADSVKGRFTISRDNSKNTLYLQMNSLRAEDTAVYYCAKDRRFGEFDPWGQGTLVTVSS
chain 2: QSALTQPASVSGSPGQSITISCTGTSSDVGTYNLVSWYQQHPGKAPKLMIYEGSQRPSGVSNRFSGSKSGNTASLTISGLQAEDEADYYCCSYAGSSSFVVFGGGTKLTVL
ELISA fold over background: 1.4 fold

B2: SARS-CoV-2 variant 1-30 (antibody)
chain 1: EVQLLESGGGLVQPGGSLRLSCAASGFTFSSYAMTWVRQAPGKGLEWVSAISGSGGSTFYADSVKGRFTISRDNSKNTLYLQMNSLRAEDTAVYYCTRPPYGDYGDYWGQGTLVTVSS
chain 2: B1 chain 2 with S27R, T31S, S54T, Q55K, S97R, S98T, F99P
ELISA fold over background: 1.7 fold

B3: SARS-CoV-2 variant 1-31 (antibody)
chain 1: B2 chain 1 with T35N
chain 2: B1 chain 2 with T31K, S97R, S98T, F99P
ELISA fold over background: 1.3 fold

B4: SARS-CoV-2 variant 1-3 (antibody)
chain 1: B1 chain 1
chain 2: B1 chain 2 with T25I, T31S, S54T, Q55K
ELISA fold over background: 1.8 fold

B5: SARS-CoV-2 variant 1-28 (antibody)
chain 1: EVQLLESGGGLVQPGGSLRLSCAASGFTFSSYGMSWVRQAPGKGLEWVSAISGSGGGTYYADSVKGRFTISRDNSKNTLYLQMNSLRAEDTAVYYCASSSSWQFDYWGQGTLVTVSS
chain 2: B1 chain 2 with D28G, T31S, S98T, F99H, V100Y
ELISA fold over background: 1.1 fold

B6: SARS-CoV-2 variant 1-5 (antibody)
chain 1: B1 chain 1
chain 2: B1 chain 2 with D28G, T31S, G53A, Q55K, S97Y, S98T, V100A
ELISA fold over background: 1.6 fold

B7: SARS-CoV-2 variant 1-32 (antibody)
chain 1: B2 chain 1 with T35Y
chain 2: QSALTQPASVSGSPGQSITISCTGTSSDVGGYNLVSWYQQHPGKAPKLMIYEGNKRPSGVSNRFSGSKSGNTASLTISGLQAEDEADYYCCSYAGSSTFPVVFGGGTKLTVL
ELISA fold over background: 1.5 fold

B8: SARS-CoV-2 variant 1-49 (antibody)
chain 1: EVQLLESGGGLVQPGGSLRLSCAASGFTFSSYAMYWVRQAPGKGLEWVSAISGSAGSTYYADSVKGRFTISRDNSKNTLYLQMNSLRAEDTAVYYCARDTNDFWGQGTLVTVSS
chain 2: QSALTQPASVSGSPGQSITISCTGTSSDIGSYNLVSWYQQHPGKAPKLMIYEGTKRPSGVSNRFSGSKSGNTASLTISGLQAEDEADYYCCSYAGSRTYVFGGGTKLTVL
ELISA fold over background: 1 fold
